Measured values taken from patent US20220403048A1, “BINDING MOLECULES TO ARGINASE II [ARG2]” (Cancer Research Technology Limited, priority 2019, published 2022).
Positions count from the first letter of the chain named.

T1: ARG2 (Homo sapiens, UniProt P78540)
T1 sequence (P78540 23-354): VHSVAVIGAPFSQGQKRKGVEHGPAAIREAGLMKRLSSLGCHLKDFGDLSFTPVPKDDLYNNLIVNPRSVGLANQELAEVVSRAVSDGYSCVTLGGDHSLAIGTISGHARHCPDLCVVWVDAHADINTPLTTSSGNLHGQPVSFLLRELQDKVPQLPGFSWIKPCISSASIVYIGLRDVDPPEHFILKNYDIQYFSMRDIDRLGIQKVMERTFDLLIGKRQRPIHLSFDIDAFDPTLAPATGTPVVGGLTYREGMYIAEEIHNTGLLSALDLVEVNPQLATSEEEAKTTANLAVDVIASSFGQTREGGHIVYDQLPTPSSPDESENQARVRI

B1: C0021158: anti-ARG2 antibody, second generation lead, VH SEQ ID NO: 272, VL SEQ ID NO: 277 (antibody, listed as Homo sapiens, V domains shown)
VH: EVQLLESGGGLVQPGGSLRLSCAASGFTFRYEVAAWVRQAPGKGLEWVSAISGPIPKGYYADSVKGRFTISRDNSKNTLYLQMNSLRAEDTAVYYCARLRADLGLYMDLWGRGTLVTVPS
VL: QSVLTQPPSVSAAPGQKVTISCSGSSSNIGNHYVSWYQQLPGTAPKLLIYDNSERTAGVPDRFSGSKSGTSATLGITGLQTGDEADYYCGTWDELTSNLVFGGGTKLTVL
modifications: C0021158
B2: C0021139: anti-ARG2 antibody, VH SEQ ID NO: 212, VL SEQ ID NO: 217 (antibody, listed as Homo sapiens, V domains shown)
VH: EVQLLESGGGLVQPGGSLRLSCAASGFTFQYDYQVWVRQAPGKGLEWVSAISGSGGSTYYADSVKGRFTISRDNSKNTLYLQMNSLRAEDTAVYYCARLRADLGLYMDLWGRGTLVTVSS
VL: B1 VL with A57S, V59I
modifications: C0021139

Experiments:
Design in all cases: human ARG2 (aa23-354); His10 (C); made in house; host or cells: E. coli BL21 (DE3)
ARG2 [1] = molecular target: T1, ARG2; assay: T cell proliferation assay (BrdU, 96 hours) with exogenous ARG2, improved variant IgGs; type: cell-based; conditions: In Presence of rhARG2; hIgG1; top conc 2 μM; n=2
Protocol: This assay served to provide evidence of improved functional efficacy for each affinity-matured antibody in comparison to the parent IgG, C0020187 (FIG. 12).
Lead optimisation clones were tested to an endpoint treatment time of 96 hours and the BrdU Cell Proliferation Kit (Roche, France; Cat: 11647229001) was used according to the manufacturer's instructions. R347 was used as the irrelevant control. All clones tested n=2.
Leukocyte cones underwent Ficoll Plaque (GE, Sweden; Cat: 17-1440-02) gradient separation, PBMC's were extracted and pan T cell population isolated by negative selection using the Human T Cell Enrichment Kit (Stemcell Technologies, France; Cat: 19051) according to the manufacturer's instructions.
40000 cells/well were seeded in complete growth media (RMPI 1640, 5% Human Serum Albumin) into a 96 well clear TC treated microplate (Greiner-Bio One, Germany; Cat: 655180). T cells were activated by the addition of ImmunoCult CD3/CD28 (Stemcell Technologies, France; Cat: 10971) at a dilution of 1:40 directly into wells and the plate incubated 37° C., 5% CO2 for 45 minutes. […]
Calculated data was expressed as % of control (Equation 3) and graphical plots were constructed using a four parameter fit and EC50's determined using model 205 in XLFit (IDBS, UK). […]

ARG2 [2] = molecular target: T1, ARG2; assay: Size-exclusion chromatography of ARG2-Fab binding stoichiometry; conditions: FIG. 23A
Protocol: ARG2 and Fabs were analysed at concentrations of 8 μM (referring to monomers) in SEC buffer containing 25 mM tris at pH 7.4 and 150 mM NaCl. ARG2-Fab complexes were formed by mixing both ARG2 and Fabs at concentrations of 8 μM (referring to monomers) in SEC buffer and incubation on ice for 1 h. For size-exclusion chromatography, […] of sample were injected into a 100 μl loop connected to a Superose 6 Increase 10/300 GL column (GE Healthcare) which was mounted to an AKTAexpress FPLC system (GE Healthcare). The column was equilibrated in SEC buffer, and SEC was performed at a flow rate of 0.5 ml/min. Molecular-weight estimates are based on the retention volumes seen for β-amylase, bovine serum albumin and carbonic anhydrase, which were analysed on the same FPLC system under identical conditions.

ARG2 [3] = molecular target: T1, ARG2; assay: Dynamic light scattering of ARG2-Fab complex sizes; conditions: FIG. 23B
Protocol: ARG2 and Fabs were analysed at concentrations of 8 μM (referring to monomers) in buffer containing 25 mM tris at pH 7.4 and 150 mM NaCl (FIG. 23). ARG2-Fab complexes were formed by mixing both ARG2 and Fabs at concentrations of 8 μM (referring to monomers) and incubation on ice for 1 h. Dynamic light scattering (DLS) was performed on a Zetasizer Ultra (Malvern Panalytical) using multiangle DLS. Data was collected in a 3×3 mm cuvette (Hellma Analytics) using a sample volume of 30 μl. Volume weighted size-distributions were corrected for refractive index, viscosity, and background scatter of the buffer by the instrument software.

Molecule	EC50 (ARG2 [1]) [nM]	Maximum % Proliferation (ARG2 [1]) [%]	size-exclusion peak of 1:1 molar mixture of ARG2 and Fab (ARG2 [2]; 8 μM each) [kDa]	Fabs bound to one ARG2 trimer (ARG2 [2]; from size-exclusion profile)	increase in average hydrodynamic radius (Rh) of ARG2-Fab complexes in comparison with ARG2-C0020187 Fab complexes (ARG2 [3]) [nm]
B1	157	90	–	–	–
B2	–	–	275	three Fabs	1.5
